This is an account of results in paper PMC7199855, “GRAF2, WDR44, and MICAL1 mediate Rab8/10/11–dependent export of E-cadherin, MMP14, and CFTR ΔF508” (The Journal of Cell Biology, 2020).

To fix the notation:
B1: myc-MICAL1 [human] / GRAF2-GFP [human] (parent complex)
chain 1: MASPTSTNPAHAHFESFLQAQLCQDVLSSFQELCGALGLEPGGGLPQYHKIKDQLNYWSAKSLWTKLDKRAGQPVYQQGRACTSTKCLVVGAGPCGLRVAVELALLGARVVLVEKRTKFSRHNVLHLWPFTIHDLRALGAKKFYGRFCTGTLDHISIRQLQLLLLKVALLLGVEIHWGVTFTGLQPPPRKGSGWRAQLQPNPPAQLANYEFDVLISAAGGKFVPEGFKVREMRGKLAIGITANFVNGRTVEETQVPEISGVARIYNQSFFQSLLKATGIDLENIVYYKDDTHYFVMTAKKQCLLRLGVLRQDWPDTNRLLGSANVVPEALQRFTRAAADFATHGKLGKLEFAQDAHGQPDVSAFDFTSMMRAESSARVQEKHGARLLLGLVGDCLVEPFWPLGTGVARGFLAAFDAAWMVKRWAEGAESLEVLAERESLYQLLSQTSPENMHRNVAQYGLDPATRYPNLNLRAVTPNQVRDLYDVLAKEPVQRNNDKTDTGMPATGSAGTQEELLRWCQEQTAGYPGVHVSDLSSSWADGLALCALVYRLQPGLLEPSELQGLGALEATAWALKVAENELGITPVVSAQAVVAGSDPLGLIAYLSHFHSAFKSMAHSPGPVSQASPGTSSAVLFLSKLQRTLQRSRAKENAEDAGGKKLRLEMEAETPSTEVPPDPEPGVPLTPPSQHQEAGAGDLCALCGEHLYVLERLCVNGHFFHRSCFRCHTCEATLWPGGYEQHPGDGHFYCLQHLPQTDHKAEGSDRGPESPELPTPSENSMPPGLSTPTASQEGAGPVPDPSQPTRRQIRLSSPERQRLSSLNLTPDPEMEPPPKPPRSCSALARHALESSFVGWGLPVQSPQALVAMEKEEKESPFSSEEEEEDVPLDSDVEQALQTFAKTSGTMNNYPTWRRTLLRRAKEEEMKRFCKAQTIQRRLNEIEAALRELEAEGVKLELALRRQSSSPEQQKKLWVGQLLQLVDKKNSLVAEEAELMITVQELNLEEKQWQLDQELRGYMNREENLKTAADRQAEDQVLRKLVDLVNQRDALIRFQEERRLSELALGTGAQG
chain 2: MGLQPLEFSDCYLDSPWFRERIRAHEAELERTNKFIKELIKDGKNLIAATKSLSVAQRKFAHSLRDFKFEFIGDAVTDDERCIDASLREFSNFLKNLEEQREIMALSVTETLIKPLEKFRKEQLGAVKEEKKKFDKETEKNYSLIDKHLNLSAKKKDSHLQEADIQVEQNRQHFYELSLEYVCKLQEIQERKKFEFVEPMLSFFQGMFTFYHQGHELAKDFNHYKMELQINIQNTRNRFEGTRSEVEELMNKIRQNPKDHKRASQFTAEGYLYVQEKRPAPFGSSWVKHYCMYRKAAKKFNMIPFEHRSGGKLGDGEVFFLKECTKRHTDSIDRRFCFDIEAADRPGVSLTMQAFSEEERKQWLEALGGKEALSHSFNTAIIPRPEGNAQLDKMGFTIIRKCISAVETRGINDQGLYRVVGVSSKVQRLLSMLMDVKTCNEVDLENSADWEVKTITSALKQYLRSLPEPLMTYELHGDFIVPAKSGSPESRVNAIHFLVHKLPEKNKEMLDILVKHLTNVSNHSKQNLMTVANLGVVFGPTLMRPQEETVAALMDLKFQNIVVEILIENHEKIFRTPPDTTFPEPTCLSASPPNAPPRQSKRQGQRTKRPVAVYNLCLELEDGDNPYPSKEDTPTSSLDSLSSPSPVTTAVPGPPGPDKNHLLADGGSFGDWASTIPGQTRSSMVQWLNPQSPTTTSSNSAVTPLSPGSSPFPFSPPATVADKPPESIRSRKARAVYPCEAEHSSELSFEIGAIFEDVQTSREPGWLEGTLNGKRGLIPQNYVKLL
B2: GFP-VAPA [human] / myc-WDR44 [human] (parent complex)
chain 1: MASASGAMAKHEQILVLDPPTDLKFKGPFTDVVTTNLKLRNPSDRKVCFKVKTTAPRRYCVRPNSGIIDPGSTVTVSVMLQPFDYDPNEKSKHKFMVQTIFAPPNTSDMEAVWKEAKPDELMDSKLRCVFEMPNENDKLNDMEPSKAVPLNASKQDGPMPKPHSVSLNDTETRKLMEECKRLQGEMMKLSEENRHLRDEGLRLRKVAHSDKPGSTSTASFRDNVTSPLPSLLVVIAAIFIGFFLGKFIL
chain 2: MASESDTEEFYDAPEDVHLGGGYPVGSPGKVGLSTFKETENTAYKVGNESPVQELKQDVSKKIIESIIEESQKVLQLEDDSLDSKGKELSDQATASPIVARTDLSNIPGLLAIDQVLPEESQKAESQNTFEETELELKKCFPSDETCEKPVDETTKLTQTSSTEQLNVLETETEVLNKEAVEVKGGGDVLEPVSSDSLSTKDFAAVEEVAPAKPPRHLTPEPDIVASTKKPVPARPPPPTNFPPPRPPPPSRPAPPPRKRKSELEFETLKTPDIDVPKENITSDSLLTASMASESTVKDSQPSLDLASATSGDKIVTAQENGKAPDGQTVAGEVMGPQRPRSNSGRELTDEEILASVMIKNLDTGEEIPLSLAEEKLPTGINPLTLHIMRRTKEYVSNDAAQSDDEEKLQSQPTDTDGGRLKQKTTQLKKFLGKSVKRAKHLAEEYGERAINKVKSVRDEVFHTDQDDPSSSDDEGMPYTRPVKFKAAHGFKGPYDFDQIKVVQDLSGEHMGAVWTMKFSHCGRLLASAGQDNVVRIWALKNAFDYFNNMRMKYNTEGRVSPSPSQESLSSSKSDTDTGVCSGTDEDPDDKNAPFRQRPFCKYKGHTADLLDLSWSKNYFLLSSSMDKTVRLWHISRRECLCCFQHIDFVTAIAFHPRDDRYFLSGSLDGKLRLWNIPDKKVALWNEVDGQTKLITAANFCQNGKYAVIGTYDGRCIFYDTEHLKYHTQIHVRSTRGRNKVGRKITGIEPLPGENKILVTSNDSRIRLYDLRDLSLSMKYKGYVNSSSQIKASFSHDFTYLVSGSEDKYVYIWSTYHDLSKFTSVRRDRNDFWEGIKAHNAVVTSAIFAPNPSLMLSLDVQSEKSEGNEKSEDAEVLDATPSGIMKTDNTEVLLSADFTGAIKVFVNKRKNVS
B3: myc-MICAL1 [human] / GRAF1b-GFP [human] (parent complex)
chain 1: B1 chain 1
chain 2: MGLPALEFSDCCLDSPHFRETLKSHEAELDKTNKFIKELIKDGKSLISALKNLSSAKRKFADSLNEFKFQCIGDAETDDEMCIARSLQEFATVLRNLEDERIRMIENASEVLITPLEKFRKEQIGAAKEAKKKYDKETEKYCGILEKHLNLSSKKKESQLQEADSQVDLVRQHFYEVSLEYVFKVQEVQERKMFEFVEPLLAFLQGLFTFYHHGYELAKDFGDFKTQLTISIQNTRNRFEGTRSEVESLMKKMKENPLEHKTISPYTMEGYLYVQEKRHFGTSWVKHYCTYQRDSKQITMVPFDQKSGGKGGEDESVILKSCTRRKTDSIEKRFCFDVEAVDRPGVITMQALSEEDRRLWMEAMDGREPVYNSNKDSQSEGTAQLDSIGFSIIRKCIHAVETRGINEQGLYRIVGVNSRVQKLLSVLMDPKTASETETDICAEWEIKTITSALKTYLRMLPGPLMMYQFQRSFIKAAKLENQESRVSEIHSLVHRLPEKNRQMLQLLMNHLANVANNHKQNLMTVANLGVVFGPTLLRPQEETVAAIMDIKFQNIVIEILIENHEKIFNTVPDMPLTNAQLHLSRKKSSDSKPPSCSERPLTLFHTVQSTEKQEQRNSIINSSLESVSSNPNSILNSSSSLQPNMNSSDPDLAVVKPTRPNSLPPNPSPTSPLSPSWPMFSAPSSPMPTSSTSSDSSPVSTPFRKAKALYACKAEHDSELSFTAGTVFDNVHPSQEPGWLEGTLNGKTGLIPENYVEFL

One experiment covers variants of B1. The experiment can be described thus: co-immunoprecipitation (IP with α-myc-coated beads, quantified western blot); transfected 293T cells; n = 3 or 4; means ± SEM; parent: 1; read off a plot. For orientation: In western blotting, separated proteins are transferred to a membrane and probed.
chain 1 K832A: the ratio to parent was around 0.03.

In the next experiment the parent is B2. The experiment can be described thus: co-immunoprecipitation (IP with α-GFP, quantified western blot); transfected 293T cells; n = 3 or 4; means ± SEM; parent: 1; read off a plot.
As for chain 1 MASASGAMAKHEQILVLDPPTDLKFKGPFTDVVTTNLKLRNPSDRKVCFKVKTTAPRRYCVRPNSGIIDPGSTVTVSVMLQPFDYDPNEKSKHDFDVQTIFAPPNTSDMEAVWKEAKPDELMDSKLRCVFEMPNENDKLNDMEPSKAVPLNASKQDGPMPKPHSVSLNDTETRKLMEECKRLQGEMMKLSEENRHLRDEGLRLRKVAHSDKPGSTSTASFRDNVTSPLPSLLVVIAAIFIGFFLGKFIL [chain 1 K94D, chain 1 M96D], the ratio to parent was around 0.4.

Variants of B3 are the subject of the next experiment. The experiment can be described thus: co-immunoprecipitation (IP with α-myc-coated beads, quantified western blot); transfected 293T cells; n = 3–5; means ± SEM; parent: 1; read off a plot.
For the variant chain 1 K832A, the ratio to parent is around 0.05.
